From IntAct's records for PubMed 22187461 come the findings set out here.

Sequences and labels used below:
B1: 26S proteasome non-ATPase regulatory subunit 11 (Drosophila melanogaster (Fruit fly)), Q7KLV9-1 (parent)
chain: MAGATLFERAQALSSVNREEQDSSLLNKLVRDQEGAENDEERIRIKEQGILQQGELYKQEGKAKELADLIKVTRPFLSSISKAKAAKLVRSLVDMFLDMDAGTGIEVQLCKDCIEWAKQEKRTFLRQSLEARLIALYFDTALYTEALALGAQLLRELKKLDDKNLLVEVQLLESKTYHALSNLPKARAALTSARTTANAIYCPPKVQGALDLQSGILHAADERDFKTAFSYFYEAFEGFDSVDSVKALTSLKYMLLCKIMLGQSDDVNQLVSGKLAITYSGRDIDAMKSVAEASHKRSLADFQAALKEYKKELAEDVIVQAHLGTLYDTMLEQNLCRIIEPYSRVQVAHVAESIQLPMPQVEKKLSQMILDKKFSGILDQGEGVLIVFEETPVDKTYERVLETIQSMGKVVDTLYQKAKKLS
partner: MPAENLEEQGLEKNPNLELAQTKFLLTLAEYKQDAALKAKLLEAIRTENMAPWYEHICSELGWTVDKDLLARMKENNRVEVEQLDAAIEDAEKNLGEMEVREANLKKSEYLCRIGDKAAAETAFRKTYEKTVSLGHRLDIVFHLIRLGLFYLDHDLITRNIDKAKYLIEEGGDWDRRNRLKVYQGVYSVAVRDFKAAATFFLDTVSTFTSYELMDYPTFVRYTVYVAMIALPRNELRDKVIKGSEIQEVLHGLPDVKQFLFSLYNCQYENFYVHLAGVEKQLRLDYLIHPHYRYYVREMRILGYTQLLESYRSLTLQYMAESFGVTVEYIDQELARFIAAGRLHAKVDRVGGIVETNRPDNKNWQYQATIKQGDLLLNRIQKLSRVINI

This assay covers variants of B1. To be noted: with psmd6_drome Rpn7, Q9V3G7.
Regarding S366K;I369A;L370A, the “effect of a mutation on the interaction” value is recorded as “disrupting interaction strength”.
